According to PMC2762092 (The Journal of Cell Biology, 2009):

Legend:
Test in all cases: pull-down
[1] = target: T1, 6xHis-tagged SPN-2 (full-length) (C. elegans, UniProt Q20898 1-761)
T1 sequence: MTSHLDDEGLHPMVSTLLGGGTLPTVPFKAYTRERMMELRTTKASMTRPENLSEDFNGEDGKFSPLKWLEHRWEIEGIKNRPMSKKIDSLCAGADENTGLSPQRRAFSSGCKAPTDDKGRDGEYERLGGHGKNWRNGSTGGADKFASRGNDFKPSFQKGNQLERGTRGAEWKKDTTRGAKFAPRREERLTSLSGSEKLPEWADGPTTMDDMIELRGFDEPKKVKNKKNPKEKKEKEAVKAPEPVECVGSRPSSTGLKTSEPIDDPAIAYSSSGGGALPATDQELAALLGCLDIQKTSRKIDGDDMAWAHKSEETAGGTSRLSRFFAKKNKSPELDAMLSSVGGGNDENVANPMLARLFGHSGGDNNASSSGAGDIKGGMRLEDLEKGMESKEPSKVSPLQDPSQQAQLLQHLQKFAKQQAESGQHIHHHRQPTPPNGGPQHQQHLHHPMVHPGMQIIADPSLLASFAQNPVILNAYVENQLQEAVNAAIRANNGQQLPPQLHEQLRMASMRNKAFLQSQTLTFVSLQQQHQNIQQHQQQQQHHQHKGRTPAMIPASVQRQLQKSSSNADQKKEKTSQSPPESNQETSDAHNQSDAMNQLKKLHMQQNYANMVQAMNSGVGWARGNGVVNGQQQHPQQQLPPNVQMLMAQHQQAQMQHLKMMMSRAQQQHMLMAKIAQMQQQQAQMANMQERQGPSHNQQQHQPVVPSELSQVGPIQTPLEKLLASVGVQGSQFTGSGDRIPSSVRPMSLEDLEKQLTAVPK

[2] = target: T2, 6xHis-tagged SPN-2N (SPN-2 N-terminal fragment, 1-399 aa) (C. elegans, UniProt Q20898 1-399)
T2 sequence: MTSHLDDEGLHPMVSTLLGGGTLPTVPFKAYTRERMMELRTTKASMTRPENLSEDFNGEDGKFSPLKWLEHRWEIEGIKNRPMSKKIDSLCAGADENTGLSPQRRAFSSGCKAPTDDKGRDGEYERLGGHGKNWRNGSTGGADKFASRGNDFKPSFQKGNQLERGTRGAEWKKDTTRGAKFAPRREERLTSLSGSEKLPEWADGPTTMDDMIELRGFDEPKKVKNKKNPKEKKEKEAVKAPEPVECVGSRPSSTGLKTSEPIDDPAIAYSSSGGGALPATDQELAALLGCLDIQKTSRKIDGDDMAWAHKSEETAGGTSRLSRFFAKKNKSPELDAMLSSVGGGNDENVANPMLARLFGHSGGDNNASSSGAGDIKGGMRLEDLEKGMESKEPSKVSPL

[3] = target: T1, 6xHis-tagged SPN-2 (full-length); remark: listed apart in the source

B1: GST–IFE-5 (natural protein)
chain: MTELTTPIYPLQRNWSWWFLNDDRNASWQDRLKKVYTFNTVPEFWAFYEAILPPSGLNDLCDYNVFRDDIQPKWEAPENWDGGRWLIIINKGKTPEVLDAVWLEILLALIGEQFGKDMESICGLVCNVRGQGSKISVWTKNCNDDDTNMRIGVVLKEKLMAAASKAHSKPLFDVIHYQTHRNCVKKTTSALKYKFSLKSIV
binding result [1]: binds
binding result [2]: binds

B2: GST–IFE-1 (natural protein)
chain: MTETEQTTAPIYPLKRNWTWWYLNDERNKSWEDRLKKVYTFNTVSEFWALYDAIRPPSGLNALCDYNVFRDDIQPMWEVPENSNGGRWLIVIDKGKTPEMVDAIWLEILMALVGEQFGKDMESICGLVCNVRGKGSKISVWTKDCNDDETNMRIGVVLKEKLMAASKDHSKPLFDVIRYEDHESCQKKTSSVVKAKLSLHSSDAPVAEKSAV
Kd [3]: 33 nM

B3: GST–IFE-2 (natural protein)
chain: MSEEPVAAPGTISHPVYKLKRNWTWWYLNDERNKSWEERLKNVKTFSSVGEFWALHDSIKPPSGLNPPSDYNVFRDGIEPMWEVPQNQNGGRWLITIEKGRTPEIMDTIWTEILMAMIGEQFSDDIESLCGIVCNVRGKGSKISVWTTNSADDGANLRIGGVLKQVLNNASMIHQRPLYDVLRYEDHESCQKKTSSGVKAKHAIYAVEPREEKAPVPVSTETPATPAT
binding result [1]: binds
binding result [2]: binds
